Laboratory results: patent US20220280636A1 (Merck Sharp & Dohme, published 2022)

Key:
gI-2t 262 = target: T1, gI-2t 262 (HSV-2, UniProt P06764 21-262); assay: SEC-MALS of the gE-2t 417 / gI-2t 262 heterodimer complex
T1 construct: Partner of gE-2t 417 in the SEC-MALS analysis of complex formation; also called soluble gI-2; not shown: glycine linker and thrombin-cleavable 6-Histidine tag

mouse whole molecule IgG = target: T2, mouse whole molecule IgG (mouse); assay: SPR; IgG amine coupled to CM5 chip, construct flowed at 750 ug/ml; end-point RU of association phase
T2 construct: Immobilised partner in SPR; also called Mouse IgG

human IgG Fc = target: T3, human IgG Fc (human); assay: as above
T3 construct: domain: Fc; Immobilised partner in SPR; also called human IgG Fc domain

human whole molecule IgG = target: T4, human whole molecule IgG (human); assay: as above
T4 construct: Immobilised partner in SPR; also called Human IgG; Human IgG Whole Molecule

[1] = target: T5, rabbit whole molecule IgG (rabbit); assay: as above
T5 construct: Immobilised partner in SPR; also called Rabbit IgG; Rabbit IgG Whole Molecule

[2] = target: T6, guinea pig whole molecule IgG (guinea pig); assay: as above
T6 construct: Immobilised partner in SPR; also called Guinea Pig IgG

B1: gE-2t 417 (other)
chain: AAPRTSWKRVTSGEDVVLLPAPAGPEERTRAHKLLWAAEPLDACGPLRPSWVALWPPRRVLETVVDAACMRAPEPLAIAYSPPFPAGDEGLYSELAWRDRVAVVNESLVIYGALETDSGLYTLSVVGLSDEARQVASVVLVVEPAPVPTPTPDDYDEEDDAGVSERTPVSVPPPTPPRRPPVAPPTHPRVIPEVSHVRGVTVHMETPEAILFAPGETFGTNVSIHAIAHDDGPYAMDVVWMRFDVPSSCAEMRIYEACLYHPQLPECLSPADAPCAVSSWAYRLAVRSYAGCSRTTPPPRCFAEARMEPVPGLAWLASTVNLEFQHASPQHAGLYLCVVYVDDHIHAWGHMTISTAAQYRNAVVEQHLPQRQPEPVEPTRPHVRAPPPAPSARGPLR
notes: Monomer, mammalian expression; also called gE-2t 417 WT; gE-2t 417 wild type; not shown: glycine linker and thrombin-cleavable 6-Histidine tag
binding result (gI-2t 262): binds | RU Post Association (mouse whole molecule IgG): 10 RU | RU Post Association (human IgG Fc): 5 RU | RU Post Association (human whole molecule IgG): 4 RU | RU Post Association [1]: 11 RU | RU Post Association [2]: 5 RU
